Paper PMC8024992

Target: ubiquitin-rhodamine (Ub-Rho) (UniProt P0CG48)

Substance: USP1^WT-UAF1 (active) (from UniProt O94782;Q8TAF3) (complex)
- KM (= k off/k on) from the KinTek global fit of activity data; +UAF1, Ub-Rho: 5.94 µM
